We go through 20 sequences from the DeepSol protein solubility set.

The data set is described as follows: soluble on expression in E. coli; label from the status in PepcDB or PDB records.
As for “MGLMHPRQLLTLPNGDVLVVEANSPGTVPITSPKQMIASIVKDRSGKGGKGGNRITLLRKAAGQSGKWEKYVFIENLHSPFGVQLIGDTLYVANTGNIMKYRYTPGETRMSDPGVEFTDLPSTVNHHWTKALLASPDGKKLYVGVGSNSNVAENGLDIEYRRATVLEVDVQSAASRIYASGIRNPTGLGWEPTTGKLWAIVNERDEIGADLVPDYLTSVQEGGFYGWPYSYYGQYVDQRVQPQRPDLVARAIRPDYALGSHVAPLGLWFYQGRNLPEKYHGGAFIGQHGSWNRIPLSGYDVVFVRFKDGKPEGVPEPVVTGFTSADQKTLKGAPVGLAEDAEGALLIADDVGNTIWRVTARGLEHHHHHH”, the “soluble on expression in E. coli” value is “not soluble”.

For “MARKVIDVRIVNAATAEQESFIKELSMELIHDVFPLYFSELDIQRLKKKGVLSLNNHYYQGTLKEAFQIMACLQMIHIILTKPSPHSDLSDQAIFEKNSKMLNDFGIYFPFAFSDFQKKTNKAFFGQRRLILEHHHHHH”, the “soluble on expression in E. coli” value is given as “not soluble”.

With “MNEKELADSVFGGLMAKAMGKMVHESEICPLVDQIEGKGQTNEELQGLRLSLSDLLLRHPDKFINCGNRNWRLNQNNHAFQQLAESISDKKSGKGGKRSARGGSNLPSFNRARSGGIPRNHNQTHGFRQSAPAHRGHHRPPAGNHGSSFRPNLNISQPNPSNDYSKMTGLHYPVSRNVLASNNGSNSRFSNQPPRREDHHEKMIMRTPYRDPSPRRGNNYGDIRGRPDSRDGYNGDRDSTRYSSPRRNEQPGRPSSRGSNISDYSQFSSDTNAESNTERRSRPDASSPDLADLARRFNSSSINVQPQPLESVASSDVLSKKIAKAVRKIMKKLNEGEKLSLENLFDEIERKNKILIPGKNGKEKEDFLKDLKKIMPKLLSALTIDTETGDLTWNEAAVTTDSPIHEYMEDDLHYYVVDYVKMLDKARFRVTDEAERLSNATGVRMERTCEKLTYVLFITFEGEYRYASGSKTEVLKISKITTVGDAPEFYQTSFEHKIFENVPANALVKCGIVRYQNVQKFAVRPEEYIKPYEKMNQEIQDFMSQIRNEKSVPFEMWRPNHACLVQLNDSTTILKWSRAMIIKIETQLIFLFILDSGFRKVVPSSDLRLMPQKFAKLPPFAIPCTLDESEDDKDNIEFGGKEYLSNGPGNLSVTCSGAATASDGILTYPIKLFSTCHGGPLTNIKDVFI”, the “soluble on expression in E. coli” value is “not soluble”.

Regarding “MNTVRWNIAVSPDVDQSVRMFIAAQGGGRKGDLSRFIEDAVRAYLFERAVE”, the “soluble on expression in E. coli” value is listed as “soluble”.

In the case of “MGSDKIHHHHHHMTTARRQLIDAESTPFYHVINRCVRRAFLCGEDALSGRSYEHRRDWIVDKIKQLSSVFCIDVCAYAVMSNHYHLVLKINLATQKRLSHFEVIERWTQLFFGHPVAAKFLKGDSLEEGERLLLDSLIGEWQERLGSISWFMRCLNEEIARKANREDGCKGVFWEGRFKSQALLDEQALLACMMYVDLNPIRAGIADSLQGSDYTSIQERIEELASPQSAPVALKPLLAFDGAAIATEQCGIPFHFADYLELIDWTGRAVREDKRGFIATTRPKLLAELGISDDAWITSAKEFRRQYSGISGRWDAMCAMKAKCGGKWCRGKQQSASIHPD”, the “soluble on expression in E. coli” value was “not soluble”.

“MGSDKIHHHHHHMNDLPLADLDAFATIARLRNFRAAGKLRGVSASSLSEAMRRLEARVGVRLLNRTTRSVTLTDAGARLLERLSPTLADIELALDDINQFRERPFGRLRLNVPGIVARCVLPPVVTGFLAAYPDILLEVTVNDALIDVLAEGCDAGIRYEEALHQDMIAVPIGPRRQRYVCVAAPSYLEQYGRPEHPRDLIHHRSILHRFNSGRVNEWHFEREGEAINVSPPPRLIAETVDLELAAVRAGLGMMGTFEDFVIEDLNAGRLERVLTDWEDEFSGPFLYYHSRRHMPVPLRVFVDYIRQHGDPG”: the “soluble on expression in E. coli” value is recorded as “not soluble”.

Take “MANDIDRAGVAKAYARWAPIYDLVFGKVFDSGRQSTIAVADAIGGRVLDVGVGTGLSLSDYSKTTRLCGVDISEPMLRKAHERVRTLNLSNVDVLAVMDAKNLAFPANYFDAVVAQYVITAVPDPEATLDDFIRVLKPGGELILVNHIGAESGPRKLFELAFSPIARRLGWRPEFPWQRLVNWAARHRGVELAERRPMPPMGHFSLIRYRKLLEHHHHHH”: the “soluble on expression in E. coli” value is given as “not soluble”.

With “MSLNGDYQLTIDKMLESGVSSNPNQIINYSGKKTFTYKEFRERVYRLAKALISIGVKKGDTVAVIDWDTYVYLEAYFAVPMIGAVLHTVNVRYPQDLIYYTMDHAEDKYVIVRDEFVPILSKNKEAFYFIKGWIIYSEYGNVPDELSPKYIYDELMSKNYDIELPEISENDLATTFYTSGTTGIPKGVQFTHRQIVLHAISSGLALSDRPISLTADDVIMPLVPMFHVHAWGVPYMTIMSGRQYVLPGRYDFDHIIDLIAQENITVIAMVPSILYMIVTNPNVGKIAGRKIRAIIGGGALPEGLQKAAEKLGIMAISGYGLSETAPILTLATYNSDVKKLPLEEQKKYHLKTGIPIPLVQLRVIDDKWNDVPRDEKTIGEIVVRAPWLTSVYVKNKEGTEALWKGGWMHTGDLAVMDKFGYIKIVDREKDAVKSGGEFIPSLILEDAISACPGVVENAVVGKPHEKWGERPVAFYTGTAKPEEIRKCLEDIVRQGRIAKFWIPDDFINVKEFVKTSTGKIDKKVLREMLKKEGHHHHHH”, the “soluble on expression in E. coli” value was “soluble”.

With “ENPRNVGSLDKTSKNVGTGLVGAPACGDVMKLQIQVDEKGKIVDARFKTFGCGSAIASSSLATEWVKGKTVEEALTIKNTDIAKELCLPPVKLHCSMLAEDAIKAALADYKLKQESK”, the “soluble on expression in E. coli” value is reported as “soluble”.

Take “MGSDKIHHHHHHMSVTINDTSSASSTQGLSSTTAVEKNSSADLQNQFLTLLVAQLKNQDPTNPMSNDQLVSQLAQLNTVSGIEKLNTTLGSISGQINNNQSMQASTLIGHSVMIPGKDILVGKETSTPFGVELEKAAEVVTVTVNDATGKAVRTIELGTLSAGVHSFNWDSKLADGTVAPDGAYTFTVAASTGGAQQVVQPLSYAVVNSVVRGDSGALLDLGLRGKATLDDVRQIL”: the “soluble on expression in E. coli” value is “not soluble”.

With “AQEPVKGPVSTKPGSCPIILIRCAMLNPPNRCLKDTDCPGIKKCCEGSCGMACFVPQ”, the “soluble on expression in E. coli” value is “soluble”.

In the case of “MGSDKIHHHHHHMRAFEKIPAFQQWQKVEAIHRGWSTDLKFKVTKNQETFLLRIFQQEELLAKQQEYQFIKKVAALGFPSSKPFLCAPIPESEQGYMLLTYLEGEDLSDVLPALSPKRQLNLGVEAGRYLNKIHKLLLPERISQREIAQNLYEKKQSQLNKYKESQFCMPYQQPIISYLEKQLPLLQQRPVVYQHGDFHVGNFIYLPTRQVGVIDFNRWDFGDPYEEFYKLQFFSRNVSPLFAYGQLQGYFAGKVPTLFWQFQKLYTFHAGLYSLVWALSFGEKEIRTMEQQYQQLLEDYNCGELLVPKWFSTIQRKGLRF”, the “soluble on expression in E. coli” value is on record as “not soluble”.

For “MSLKEELQLKQKLGGQKMVIQGDTLENSARRLLQERGVTMNDLAELVLFLQKDYIDNLTLDTCLESVDAVLTKREVHNAIITGVQLDILAEENKLLSPLQEILTEDEGLYGIDEIMALSIVNVYGSIGFTNYGYIDKVKPGILKELNAHDGEHVHTFLDDIVGAIAAAAASRLAHSQPDLSDITKEGGSHHHHHH”, the “soluble on expression in E. coli” value is reported as “soluble”.

Turning to “MRGSHHHHHHSNFAIILAAGKGTRMKSDLPKVLHKVAGISMLEHVFRSVGAIQPEKTVTVVGHKAELVEEVLAGQTEFVTQSEQLGTGHAVMMTEPILEGLSGHTLVIAGDTPLITGESLKNLIDFHINHKNVATILTAETDNPFGYGRIVRNDNAEVLRIVEQKDATDFEKQIKEINTGTYVFDNERLFEALKNINTNNAQGEYYITDVIGIFRETGEKVGAYTLKDFDESLGVNDRVALATAESVMRRRINHKHMVNGVSFVNPEATYIDIDVEIAPEVQIEANVILKGQTKIGAETVLTNGTYVVDSTIGAGAVITNSMIEESSVADGVTVGPYAHIRPNSSLGAQVHIGNFVEVKGSSIGENTKAGHLTYIGNCEVGSNVNFGAGTITVNYDGKNKYKTVIGDNVFVGSNSTIIAPVELGDNSLVGAGSTITKDVPADAIAIGRGRQINKDEYATRLPHHPKNQ”, the “soluble on expression in E. coli” value is listed as “soluble”.

With “MPFRNAVQTASPPTTPKQKAHHDRIHVHPFGLGTHLCQRPLPHDQTVRRGRTQAQTFRTPHDRAGGRFRADRRSCLHPRIPCRIGTRSGLGVLCHSRLPVPDFCVSMFCVAVFLAHAQQGIDKHRNAV”, the “soluble on expression in E. coli” value is on record as “not soluble”.

For the sequence “MITLAVDAMGGDQGLAVTVPGATAFLQAHPDVRLIMTGDETQLRQALTAAGAPMERIDICHTTQVVGMDEAPQSALKNKKDSSMRVAINQVKEGKAQAAVSAGNTGALMATARFVLKTIPGIERPAIAKFLPSDTDHVTLALDLGANVDCTSEQLAQFAVIGSELVHALHPQKGQPRVGLVNVGTEDIKGTDTVKQTYKLLQNSKLNFIGNIESNGILYGEADVVVADGFVGNVMLKTIEGAVKFMSGAIRREFQSNLFNKLAAVAALPALKGLKNKLDPRKFNGAILLGLRGIVIKSHGGTDETGFRYALEEAYHEAKSAGLSKIEQGVAEQLAALETAKAVQNENVGGL”, the “soluble on expression in E. coli” value was “not soluble”.

For the sequence “GPGSMRLLSKAAHPDGSMEVRVSVGTAEDLWHLYNFILVGDLVLTKTRRKVPRENALGTLAAEMKMLKLEVEVKHIAFTPDELRIQGVNKKENNFVKTGAHHTLTIHANPPQEVRITKREWDSICEDRLKDACDESGKADTAAVLMSFGEAQVLLVTRSFVHIKAKVEVTISKKHKSDGKARDKSIERFFKQSLDALVTHVDFEKTKLVLLCSPGHVREEFHAYIKEVTQRADHGPLREVYLNLSRFLLVKVSSTTISGLKEALSDPGVAQRMESTKCVDDIRMWEKFQDTMNKDPDRCVYTPQYVYYAAMAGAVGGLMISDDVFRSENPTERRFFLSLVNFVRQSGSPTVNVFSSKHVTGEQLTQLGSVAAVLRFSCPEIDDMEVVPEFLASKEVEEFIRANATARVTV”, the “soluble on expression in E. coli” value is given as “not soluble”.

“MGSDKIHHHHHHMPGFSADLDCVPGSIRSQVEENYRVWRRAWITSSAQPAVNSSGRALRLQPRHTAQRRTASESGADAGGELNGITIPTTATTRYAERRGISIVRTYADEGKSGLRIDGRRALQQLIKDVEGGTADFQIILVYDVSRWGRFQDADESAYYECICRRAGIQVAYCAEQFENDGSPVSTIVKGVKRAMAREYSRELSAKVFAGQCRLIELGYRQGSPAGFGLRRVLIDQQGSSKGMLARGEQKSLQTDRVVLMPGPGDEIRIVHQIYRWFIDEGLGDSEIAMRLNSIRVRTDFDRYWTRATVHEVLTNEKYIGNNVYNRISFKLKKLRVVNTPDMWDQKGRRV”: the “soluble on expression in E. coli” value is reported as “not soluble”.

With “MGSDKIHHHHHHMHCGIDYGTSNSSLGIVKDGKVVQAELERNSVYLPSAIYRAFPEHELNDDIASRSIRQQLGSAQGLLYGSEAIEAYVRHPGDGLFMKSPKVFLGSDLSKDQMDFFQIVIAKMMTHILERAREFYGQELRQAVIGRPIRYHGIRGEEGDKQALAIMEHAAAGAGLEEVVFMYEPLAAALDYEQCLDRDEVLLVVDVGGGTTDCSVVKVGPSYRDKRERSDDLLAYSGNRIGGVDLDINLGWHTIMPLFGRGTDELHNKAFDAITVNSIPSQQAFYSRFEMPVHAQADTVRERLYRVWLDKLSSHLVRSAELAKIELSRRTSHVLELGYVEDGLEVHVSREDFRQAIARSAEKIRQVIDDARQASASRPDKIYLTGGSAVSPVIQQVIREVVGDAVPFVSGNMHGSVACGLSVFANRHFA”, the “soluble on expression in E. coli” value is on record as “not soluble”.

On to “MGSDKIHHHHHHMSQDDLLSQEEIDALLKGVSGDEDNAQDERASREGKVRPFDPAKQHRIIRERLHALDIINERFARQFRVALFNLMRRSADITVESVRYQSYSEFSRNLPVPTNLNLITMKPLRGSALVVFPPSLVFMVVDNLFGGDGRFLTKSEGREFTRTEQRIIHRMLKMALEGYSESWKSVYPLDIEYTRSELQVKFANITNSPNEIVVNSTFHVEVGNLSSEFNICIPYSMIEPIRDILASPLHDTHPDEEQQWEARMAHEIRHSSVELTADFVDIPLRLRDVTQLSVGDIIPIELPEAVNVSVDGIPVMTCDYGSQKSQRALRVRHLIEHGSSQVAAKDPKDD”, for which the “soluble on expression in E. coli” value was “not soluble”.
